From publication PMC10397247

B1: Core_NINN-es_EKKK (peptide)
chain: DENAALEAKIAALKAKNAALKAKNAALKG
B2: 4H19-bH (peptide)
chain: DEIQELEKEIEELERENWELEKENQELER

How the values were obtained:
Core_NINN-es_KEEE = biological target: T1, Core_NINN-es_KEEE; assay: two-hybrid library CCmax; settings: mean of both orientations;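 also: natural log of median RNA to DNA barcode read ratio; higher means stronger binding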
T1 chain: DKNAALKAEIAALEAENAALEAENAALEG

4H2937-bH = biological target: T2, 4H2937-bH; assay: two-hybrid library CCNG1;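 also: natural log of median RNA to DNA barcode read ratio; higher means stronger binding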
T2 chain: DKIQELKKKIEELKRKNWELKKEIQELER

4H342-bH = biological target: T3, 4H342-bH; assay: two-hybrid library CCNG1;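 also: natural log of median RNA to DNA barcode read ratio; higher means stronger binding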
T3 chain: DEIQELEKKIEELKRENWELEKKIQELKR

4H2883-bH = biological target: T4, 4H2883-bH; assay: two-hybrid library CCNG1;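 also: natural log of median RNA to DNA barcode read ratio; higher means stronger binding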
T4 chain: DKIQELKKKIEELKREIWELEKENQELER

4H2944-bH = biological target: T5, 4H2944-bH; assay: two-hybrid library CCNG1;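 also: natural log of median RNA to DNA barcode read ratio; higher means stronger binding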
T5 chain: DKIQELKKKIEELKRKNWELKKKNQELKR

4H491-bH = biological target: T6, 4H491-bH; assay: two-hybrid library CCNG1;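 also: natural log of median RNA to DNA barcode read ratio; higher means stronger binding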
T6 chain: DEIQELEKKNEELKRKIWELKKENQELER

4H48-bH = biological target: T7, 4H48-bH; assay: two-hybrid library CCNG1
T7 chain: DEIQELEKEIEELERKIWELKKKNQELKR

4H2696-bH = biological target: T8, 4H2696-bH; assay: two-hybrid library CCNG1
T8 chain: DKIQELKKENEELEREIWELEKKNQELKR

4H19-bH = biological target: T9, 4H19-bH; assay: two-hybrid library CCNG1
T9 chain: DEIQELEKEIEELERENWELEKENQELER

| Binder | interaction score (Core_NINN-es_KEEE) | interaction score (4H2937-bH) | interaction score (4H342-bH) | interaction score (4H2883-bH) | interaction score (4H2944-bH) | interaction score (4H491-bH) | interaction score (4H48-bH) | interaction score (4H2696-bH) | interaction score (4H19-bH) |
| --- | --- | --- | --- | --- | --- | --- | --- | --- | --- |
| B1 | 2.12 |  |  |  |  |  |  |  |  |
| B2 |  | 0.634 | -0.785 | 1.05 | 1.17 | 0.299 | -1.56 | 0.41 | -0.777 |
